Data published in patent publication US20090100532A1, “TRANSGENIC MICE EXPRESSING HYPERSENSITIVE NICOTINIC RECEPTORS” (CALIFORNIA INSTITUTE OF TECHNOLOGY, priority 2007, published 2009).

Legend:
β2-CFP (mouse) = β2-CFP (mouse) (UniProt Q9ERK7); test: acceptor photobleaching FRET, N2a cells, within the same α4β2 pentamer
[1] = molecular target: CFP-labeled GluCl β subunit (UniProt Q17328); test: acceptor photobleaching FRET, N2a cells; specificity control
α4-CFP (mouse) = α4-CFP (mouse) (UniProt O70174); test: acceptor photobleaching FRET, N2a cells, untagged β2 coexpressed
α4-CFP (mouse), sequence (O70174 31-629): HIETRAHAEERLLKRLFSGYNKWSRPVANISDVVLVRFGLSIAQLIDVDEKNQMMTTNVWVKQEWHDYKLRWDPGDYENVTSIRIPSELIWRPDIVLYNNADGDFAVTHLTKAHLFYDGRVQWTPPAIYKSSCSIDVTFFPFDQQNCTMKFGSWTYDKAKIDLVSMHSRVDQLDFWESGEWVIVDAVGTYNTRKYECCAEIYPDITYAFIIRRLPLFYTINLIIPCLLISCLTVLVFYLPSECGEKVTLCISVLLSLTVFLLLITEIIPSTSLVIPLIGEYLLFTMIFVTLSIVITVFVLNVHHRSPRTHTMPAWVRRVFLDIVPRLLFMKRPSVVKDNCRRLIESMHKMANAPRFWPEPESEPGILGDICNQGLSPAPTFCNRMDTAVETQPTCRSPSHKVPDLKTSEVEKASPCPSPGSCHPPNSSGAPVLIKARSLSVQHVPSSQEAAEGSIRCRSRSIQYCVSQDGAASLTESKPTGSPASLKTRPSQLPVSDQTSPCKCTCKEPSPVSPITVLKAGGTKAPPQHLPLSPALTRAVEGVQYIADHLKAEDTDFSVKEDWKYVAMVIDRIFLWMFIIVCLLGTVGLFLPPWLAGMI

CFP-labeled GluCl β subunit, sequence (Q17328 23-434): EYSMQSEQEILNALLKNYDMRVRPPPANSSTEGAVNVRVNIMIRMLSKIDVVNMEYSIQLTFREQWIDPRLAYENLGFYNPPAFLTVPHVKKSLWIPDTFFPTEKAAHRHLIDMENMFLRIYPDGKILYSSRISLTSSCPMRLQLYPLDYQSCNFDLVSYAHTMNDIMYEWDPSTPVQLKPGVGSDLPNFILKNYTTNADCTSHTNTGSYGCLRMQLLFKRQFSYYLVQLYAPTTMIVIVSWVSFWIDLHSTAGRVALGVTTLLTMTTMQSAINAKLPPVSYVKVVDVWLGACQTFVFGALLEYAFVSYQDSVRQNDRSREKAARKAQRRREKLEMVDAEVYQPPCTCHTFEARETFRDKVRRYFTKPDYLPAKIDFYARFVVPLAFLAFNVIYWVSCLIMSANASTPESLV
β2-CFP (mouse), sequence (Q9ERK7 26-501): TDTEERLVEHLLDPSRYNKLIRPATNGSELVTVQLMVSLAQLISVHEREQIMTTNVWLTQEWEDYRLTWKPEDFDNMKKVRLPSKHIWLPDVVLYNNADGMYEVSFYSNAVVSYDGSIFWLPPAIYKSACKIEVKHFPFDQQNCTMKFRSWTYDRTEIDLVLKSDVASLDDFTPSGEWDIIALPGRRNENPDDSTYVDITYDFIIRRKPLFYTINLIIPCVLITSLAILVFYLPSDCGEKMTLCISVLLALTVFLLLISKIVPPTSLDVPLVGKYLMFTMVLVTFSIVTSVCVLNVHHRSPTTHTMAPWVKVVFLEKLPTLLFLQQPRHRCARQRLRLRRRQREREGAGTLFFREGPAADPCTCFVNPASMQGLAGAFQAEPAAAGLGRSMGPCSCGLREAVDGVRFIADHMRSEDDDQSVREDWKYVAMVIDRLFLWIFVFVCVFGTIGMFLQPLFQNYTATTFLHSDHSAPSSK
β2-YFP, sequence (Q9ERK7 26-501): as above
α4-YFP, sequence (O70174 31-629): as the sequence (O70174 31-629) above

Substance | FRET E [1] [%] | also measured
β2-YFP (from UniProt Q9ERK7 26-501) (receptor) | – | FRET E (β2-CFP (mouse)): 16.3%
β3-YFP^P379 (from UniProt Q8BMN3 31-379; Q8BMN3 380-464) (receptor) | 6 | –
α6-YFP^A405 (from UniProt Q9R0W9 31-405; Q9R0W9 406-494) (receptor) | 14 | –
α4-YFP (from UniProt O70174 31-629) (receptor) | – | FRET E (α4-CFP (mouse)): 22.2%
